Assay results from paper PMC9986795, “Structural basis of DNA binding by YdaT, a functional equivalent of the CII repressor in the cryptic prophage CP-933P from Escherichia coli O157:H7” (Acta Crystallographica. Section D, Structural Biology, 2023).

Biological target: the molecule itself
Experiment: crystal structure; sitting drop, 0.1 M bis-Tris pH 5.5, 2.0 M ammonium sulfate, 19°C; free YdaT, a tetramer in the asymmetric unit, 2.4 Å

B1: YdaT from the cryptic prophage CP-933P of Escherichia coli O157:H7 (wild-type YdaT) (natural protein)
chain: KIKHEHIRMAMNVWAHPDGEKVPAAKITKAYFELGMTFPELYDDSHPEALARNTQKIFRWLDKDTPDAVEKMQALLPAIEKAMPPLLVARMRSHSSEYYREIVERRDRLVKDVDDFVASAVVLYDQMNRGGPAGNAVVMH
notes: YdaT, E. coli O157:H7 prophage CP-933P, open reading frame in pET-28b; also called CP-933P YdaT; full-length protein
- stoichiometry N: 4
